The assay addresses T1, purified Flag-PREX2 protein (UniProt Q70Z35 1-1606).
T1 construct: PREX2, full length (183 kD); it may be the same construct; also called purified PREX2 protein; purified full-length PREX2; source: recombinant, purified (as described in Supplementary materials and methods)
Briefly: pull-down; 25 µL AHCYL1-binding glutathione magnetic beads with 250 ng purified Flag-PREX2, on ice 1 h; washed with 50 mM Tris-HCl pH 7.4, 300 mM NaCl, 0.5% NP40; detected by Flag antibody. Particulars: both partners purified.

T1 sequence (Q70Z35 whole entry): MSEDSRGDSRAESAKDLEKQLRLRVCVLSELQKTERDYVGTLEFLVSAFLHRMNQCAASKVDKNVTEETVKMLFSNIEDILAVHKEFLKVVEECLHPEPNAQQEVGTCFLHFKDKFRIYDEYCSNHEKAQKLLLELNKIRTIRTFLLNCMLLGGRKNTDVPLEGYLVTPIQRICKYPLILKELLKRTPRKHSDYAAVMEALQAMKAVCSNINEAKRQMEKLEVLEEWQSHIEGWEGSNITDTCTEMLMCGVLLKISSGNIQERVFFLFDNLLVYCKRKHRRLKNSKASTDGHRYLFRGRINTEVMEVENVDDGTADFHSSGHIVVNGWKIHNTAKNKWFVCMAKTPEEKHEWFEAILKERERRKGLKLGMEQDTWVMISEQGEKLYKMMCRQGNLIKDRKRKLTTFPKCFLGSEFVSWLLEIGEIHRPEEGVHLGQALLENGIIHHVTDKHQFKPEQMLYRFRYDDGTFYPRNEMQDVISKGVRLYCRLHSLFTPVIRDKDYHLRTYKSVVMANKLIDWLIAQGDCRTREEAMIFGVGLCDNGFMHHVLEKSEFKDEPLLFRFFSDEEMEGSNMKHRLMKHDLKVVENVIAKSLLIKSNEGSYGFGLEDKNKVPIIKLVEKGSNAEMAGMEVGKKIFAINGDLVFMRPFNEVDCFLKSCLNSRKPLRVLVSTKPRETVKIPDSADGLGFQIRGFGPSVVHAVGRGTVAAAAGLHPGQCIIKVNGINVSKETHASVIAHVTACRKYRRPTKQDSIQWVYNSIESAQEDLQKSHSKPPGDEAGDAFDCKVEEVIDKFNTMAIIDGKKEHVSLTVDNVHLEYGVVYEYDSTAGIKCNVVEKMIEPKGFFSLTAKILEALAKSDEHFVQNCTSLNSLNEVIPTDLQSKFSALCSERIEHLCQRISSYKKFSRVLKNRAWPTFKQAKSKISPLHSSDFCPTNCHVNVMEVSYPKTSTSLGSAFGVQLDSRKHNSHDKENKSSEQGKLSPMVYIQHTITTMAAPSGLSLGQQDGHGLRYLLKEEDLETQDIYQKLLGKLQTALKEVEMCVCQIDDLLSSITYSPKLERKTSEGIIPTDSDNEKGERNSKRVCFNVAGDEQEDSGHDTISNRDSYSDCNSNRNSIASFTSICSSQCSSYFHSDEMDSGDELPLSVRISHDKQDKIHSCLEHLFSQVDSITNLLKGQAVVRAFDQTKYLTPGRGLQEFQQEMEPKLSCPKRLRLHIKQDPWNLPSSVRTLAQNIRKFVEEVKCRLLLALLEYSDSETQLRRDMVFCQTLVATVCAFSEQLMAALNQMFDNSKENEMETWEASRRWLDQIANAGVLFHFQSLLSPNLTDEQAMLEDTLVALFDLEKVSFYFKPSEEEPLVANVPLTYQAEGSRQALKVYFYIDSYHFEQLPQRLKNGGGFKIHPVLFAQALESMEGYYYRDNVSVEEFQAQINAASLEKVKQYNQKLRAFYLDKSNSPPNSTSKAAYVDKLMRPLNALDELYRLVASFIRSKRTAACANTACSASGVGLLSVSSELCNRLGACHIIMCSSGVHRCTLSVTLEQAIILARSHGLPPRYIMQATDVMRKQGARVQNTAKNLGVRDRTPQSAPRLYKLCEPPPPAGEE

B1: GST-AHCYL1 recombinant protein (natural protein, UniProt O43865 1-530, looked up)
chain: MSMPDAMPLPGVGEELKQAKEIEDAEKYSFMATVTKAPKKQIQFADDMQEFTKFPTKTGRRSLSRSISQSSTDSYSSAASYTDSSDDEVSPREKQQTNSKGSSNFCVKNIKQAEFGRREIEIAEQDMSALISLRKRAQGEKPLAGAKIVGCTHITAQTAVLIETLCALGAQCRWSACNIYSTQNEVAAALAEAGVAVFAWKGESEDDFWWCIDRCVNMDGWQANMILDDGGDLTHWVYKKYPNVFKKIRGIVEESVTGVHRLYQLSKAGKLCVPAMNVNDSVTKQKFDNLYCCRESILDGLKRTTDVMFGGKQVVVCGYGEVGKGCCAALKALGAIVYITEIDPICALQACMDGFRVVKLNEVIRQVDVVITCTGNKNVVTREHLDRMKNSCIVCNMGHSNTEIDVTSLRTPELTWERVRSQVDHVIWPDGKRVVLLAEGRLLNLSCSTVPTFVLSITATTQALALIELYNAPEGRYKQDVYLLPKKMDEYVASLHLPSFDAHLTELTDDQAKYLGLNKNGPFKPNYYRY
notes: AHCYL1 (IRBIT); Construct details are in the supplementary materials and methods; also called AHCYL1 conjugated-GST beads; source: recombinant, purified (as described in Supplementary materials and methods)
Consider B1, for which the binding result is listed as “binds”.

(Values after PMC12068309, “AHCYL1 mediates the tumor-promoting effect of PREX2 in non-small cell lung carcinoma” (Theranostics, 2025).)
